Measurements from the supplement of paper PMC10724198.
± gives the standard deviation of the averaged measurements.
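Further: PSI is a weighted mean of sequencing reads over stability bins, variants kept only with over 10 reads, mCherry proximal and sfGFP distal, peptide attached via GGGS linker.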

These sequences were tested on Saccharomyces cerevisiae (assay: protein stability index of tFT-peptide fusion (C-terminal peptide) (PSI (0-1 scale)); higher = more stable (slower turnover)). Settings: genetic background: wild type; temperature: 30 C.
Protocol: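 Multiplexed protein stability (MPS) profiling in S. cerevisiae. Random 12-aa peptides (tFT-X12 library) are fused to the C-terminus of a sfGFP-mCherry tandem fluorescent timer, after mCherry and a GGGS linker. Cells are FACS-sorted into 8 mCherry/sfGFP bins and deep-sequenced. The protein stability index (PSI) is the read-weighted bin average, scaled from 0 (unstable) to 1 (stable). Only peptides with >10 reads are reported; cells were grown at 30 °C in SC-His with glucose.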
DVHGETRGYGIQ was tested, and the protein stability index was 0.665 ± 0.019. With DVLFFSALKAHR the protein stability index was 0.6881 ± 0.003. For DVLGCHRCLGFC, the protein stability index was 0.699 ± 0.021. With DVNSNYNVGEQR the protein stability index was 0.64 ± 0.012. With DVRTLGTRVMGW the protein stability index was 0.6769 ± 0.0057. Work on DVVDGCGGRYGW yielded a protein stability index of 0.687 ± 0.029. Work on DVVLFQLGSELV yielded a protein stability index of 0.712 ± 0.013. With DVYMWVVPNFTD the protein stability index was 0.729 ± 0.037. DWAGGKMESVYR was tested, and the protein stability index was 0.66 ± 0.011. With DYHPPRRMKEAG the protein stability index was 0.625 ± 0.028. DYHWPFIRTATE was tested, and the protein stability index was 0.774 ± 0.027. EAHGQQESRCEQ showed a protein stability index of 0.7 ± 0.055. EATCSPCPTRVV was tested, and the protein stability index was 0.621 ± 0.012. For EATIVGLSYRTL, the protein stability index was 0.617 ± 0.032. For ECGLRAAKPVWI, the protein stability index was 0.702 ± 0.063. ECPLPPCPPLST was tested, and the protein stability index was 0.68 ± 0.0098. For ECVRWFKNTDRL, the protein stability index was 0.721 ± 0.032. EDLVREKRKCEK showed a protein stability index of 0.694 ± 0.043. EEEAETRHSMVY showed a protein stability index of 0.738 ± 0.041. With EEEQGPSENEKT the protein stability index was 0.9714 ± 0.0082. With EEHWDCEYVAFH the protein stability index was 0.719 ± 0.015. In the case of EEMMEWKKREEK, the protein stability index is reported as 0.6596 ± 0.0009. EEREKKWKGKGK was tested, and the protein stability index was 0.718 ± 0.035. For EETRLQEVNRIL, the protein stability index was 0.737 ± 0.033. For EETTSNLGLKVN, the protein stability index was 0.5617 ± 0.0014. EFKLINLETQRC showed a protein stability index of 0.706 ± 0.017. Work on EFMRHAFTPLPT yielded a protein stability index of 0.733 ± 0.041. For EFPPPPSSRSCA, the protein stability index was 0.712 ± 0.013. EFRWVASGDLLS gave a protein stability index of 0.749 ± 0.017. With EGDGQGWGGQGG the protein stability index was 0.702 ± 0.03. Work on EGDGQVWGGQGG yielded a protein stability index of 0.644 ± 0.0078. In the case of EGDKGGGEQKRQ, the protein stability index is reported as 0.688 ± 0.031. Sequence EGDRLVKEVGEE has a protein stability index of 0.654 ± 0.12. EGEGAGRWCGRG showed a protein stability index of 0.66 ± 0.051. In the case of EGEVGGRWCGRG, the protein stability index is reported as 0.676 ± 0.046. EGGAGGGVWGLG gave a protein stability index of 0.819 ± 0.11. EGGFGSVLGGRG gave a protein stability index of 0.724 ± 0.058. Sequence EGGTGCLAMSVG has a protein stability index of 0.7 ± 0.012. Sequence EGIDFVDQRLLS has a protein stability index of 0.663 ± 0.005. EGLTYIPCQTDC gave a protein stability index of 0.812 ± 0.028. Work on EGRRAGRVGTQV yielded a protein stability index of 0.688 ± 0.024. With EGSEAYQWETLG the protein stability index was 0.681 ± 0.038. With EGSLHLHLSLST the protein stability index was 0.66 ± 0.029. Work on EGSVGRRGHCVR yielded a protein stability index of 0.6959 ± 0.0055. For EGTPLTIQRIGE, the protein stability index was 0.666 ± 0.094. For EGWRWEGGVWEG, the protein stability index was 0.676 ± 0.022. EGYGPSVRYRRS was tested, and the protein stability index was 0.639 ± 0.084. For EIHKDSNTENIK, the protein stability index was 0.663 ± 0.0031. In the case of EIKKKKSQTKKT, the protein stability index is reported as 0.67 ± 0.085. Sequence EITKVKDNEKIN has a protein stability index of 0.686 ± 0.12. With EKGRGGIGSRGK the protein stability index was 0.768 ± 0.064. EKKIDPTVKEGK was tested, and the protein stability index was 0.663 ± 0.0094. For EKKNMRYKTVEI, the protein stability index was 0.668 ± 0.066. For EKLKTKEEKKTR, the protein stability index was 0.759 ± 0.054. With EKRKNKKYKNKM the protein stability index was 0.698 ± 0.049. Sequence EKSGKDKRKNEI has a protein stability index of 0.723 ± 0.062. EKSRSLACQHST was tested, and the protein stability index was 0.6725 ± 0.0052. In the case of ELCWCSKDNCYP, the protein stability index is reported as 0.6993 ± 0.0059. Work on ELFHVGQLNSHE yielded a protein stability index of 0.738 ± 0.12. ELGTDGSQKRAA was tested, and the protein stability index was 0.7045 ± 0.0053. For ELHPPIPYPSRP, the protein stability index was 0.6773 ± 0.0047. For ELIDGKLLRHRQ, the protein stability index was 0.733 ± 0.061. In the case of ELKGHIPFTLSR, the protein stability index is reported as 0.703 ± 0.04. ELLSCGCCMVQS showed a protein stability index of 0.5622 ± 0.0025. ELNGLSLVRKKK gave a protein stability index of 0.662 ± 0.021. With ELRFRGITRTTV the protein stability index was 0.725 ± 0.052. In the case of ELSCMDGPLLCP, the protein stability index is reported as 0.683 ± 0.059. ELSPLSYRNRTA showed a protein stability index of 0.6835 ± 0.001. Work on EMEHANDARRVS yielded a protein stability index of 0.67 ± 0.015. Work on ENERRESLTMVR yielded a protein stability index of 0.786 ± 0.1. In the case of ENQGQKKKKKKR, the protein stability index is reported as 0.733 ± 0.12. With EPDISTRGPGWT the protein stability index was 0.74 ± 0.026. With EPEPALTSAPPA the protein stability index was 0.715 ± 0.023. For EPGREKRRIVQK, the protein stability index was 0.679 ± 0.042. In the case of EPIMVKKACTDG, the protein stability index is reported as 0.645 ± 0.029. EQLRLQSIECGE showed a protein stability index of 0.631 ± 0.0073. EQNKQPEKETYN was tested, and the protein stability index was 0.625 ± 0.076. With EQSLRHKCRPSV the protein stability index was 0.596 ± 0.014. EREGGWEVNKWR gave a protein stability index of 0.757 ± 0.079. Sequence ERGKREMRKNLT has a protein stability index of 0.681 ± 0.018. For ERGKRKASHRRR, the protein stability index was 0.683 ± 0.041. Work on ERIIGNRCYVRK yielded a protein stability index of 0.666 ± 0.039. Work on ERRKSKRKNENE yielded a protein stability index of 0.674 ± 0.0084. ERRQADRHRTTP was tested, and the protein stability index was 0.766 ± 0.05. For ERSRKVSWRFIR, the protein stability index was 0.6746 ± 0.0033. Work on ERYKHKKMKNNE yielded a protein stability index of 0.699 ± 0.097. Sequence ESAARGWSSGVG has a protein stability index of 0.726 ± 0.079. For ESAVHRTRRIPY, the protein stability index was 0.7888 ± 0.0046. For ESGRGGVGVGWG, the protein stability index was 0.709 ± 0.096. Work on ESLMYGYWGFAR yielded a protein stability index of 0.727 ± 0.045. In the case of ESRRKRRVAGPN, the protein stability index is reported as 0.7072 ± 0.0066. For ESYGIVEEGVYS, the protein stability index was 0.652 ± 0.082. ETKRRQEQNIVR gave a protein stability index of 0.721 ± 0.082. Sequence ETKSDRHDRTGT has a protein stability index of 0.655 ± 0.015. ETVNGVGSRWGF showed a protein stability index of 0.741 ± 0.1. For EVALDRLKNRGG, the protein stability index was 0.671 ± 0.028. Work on EVCPRGIAGGVV yielded a protein stability index of 0.678 ± 0.013. EVDHLPHQVFRY showed a protein stability index of 0.6671 ± 0.0021. EVERKNKESGKI was tested, and the protein stability index was 0.717 ± 0.011. EVGMDLTTGPIS gave a protein stability index of 0.619 ± 0.056. EVGQYVEWSCLL gave a protein stability index of 0.671 ± 0.019. EVLFWRGVSRME showed a protein stability index of 0.725 ± 0.16. EVRWIGLPMCTS showed a protein stability index of 0.6524 ± 0.0023. EVVFVARSGSGV showed a protein stability index of 0.654 ± 0.008. In the case of EVVRTWAVVEGG, the protein stability index is reported as 0.646 ± 0.11. With EWGDLDGRGEPR the protein stability index was 0.74 ± 0.0075. Work on EYGQTDENKMRM yielded a protein stability index of 0.687 ± 0.096. For EYIWLSLGSVYI, the protein stability index was 0.624 ± 0.05. With EYRKSVERLRVD the protein stability index was 0.687 ± 0.053. Sequence EYTIKTENKYKI has a protein stability index of 0.747 ± 0.13. Sequence EYVKFGMEHILE has a protein stability index of 0.675 ± 0.024. Work on FAFRGFLIGCGV yielded a protein stability index of 0.54 ± 0.011. Work on FAGAEFCGPVGV yielded a protein stability index of 0.629 ± 0.0024. FAKLDRVGACRW was tested, and the protein stability index was 0.764 ± 0.013. FALSSSLIRAFL showed a protein stability index of 0.726 ± 0.00088. FALYVHHSLSFG gave a protein stability index of 0.685 ± 0.02. Sequence FCGACFRGDVLV has a protein stability index of 0.67 ± 0.017. With FCGGSWTDGFGW the protein stability index was 0.737 ± 0.028. FCGLCCDPNRVP was tested, and the protein stability index was 0.708 ± 0.036. For FCHLGSPATDFR, the protein stability index was 0.646 ± 0.013. FCIRLFLLPLCP was tested, and the protein stability index was 0.5869 ± 0.0055. FCLDLLVGLVFL was tested, and the protein stability index was 0.546 ± 0.035. With FCLGPSLSSSSL the protein stability index was 0.714 ± 0.027. For FCLGWWVAVCGL, the protein stability index was 0.487 ± 0.04. With FCPPLAFPPPLS the protein stability index was 0.743 ± 0.028. FCSMLPSHLPEA was tested, and the protein stability index was 0.6972 ± 0.0027. FCYLCARMPYRS was tested, and the protein stability index was 0.662 ± 0.13. FDAWSLASASLV gave a protein stability index of 0.741 ± 0.036. Work on FDSGLTTHQRDA yielded a protein stability index of 0.686 ± 0.029. FDSVAVLYSGGV showed a protein stability index of 0.66 ± 0.0078. With FELEQNCESATS the protein stability index was 0.706 ± 0.013. FELVEAAYISEE gave a protein stability index of 0.626 ± 0.058. Sequence FESFHLENRGEK has a protein stability index of 0.706 ± 0.04. With FESRDMVGWFGG the protein stability index was 0.674 ± 0.019. With FFCDFFYLSSHF the protein stability index was 0.716 ± 0.019. FFCILCAHWFPL showed a protein stability index of 0.589 ± 0.086. In the case of FFFLPSPTFLPP, the protein stability index is reported as 0.764 ± 0.046. FFGCVLRPCLRG gave a protein stability index of 0.72 ± 0.0076. In the case of FFGYLVDEGLWV, the protein stability index is reported as 0.738 ± 0.0084. FFKNAILFVSCE gave a protein stability index of 0.548 ± 0.049. With FFLGAPVRQFFF the protein stability index was 0.582 ± 0.011. FFLLGRGVCLGA was tested, and the protein stability index was 0.663 ± 0.054. Sequence FFLRNRPPLCGQ has a protein stability index of 0.665 ± 0.012. FFLSSLFPSFSS was tested, and the protein stability index was 0.796 ± 0.044. FFRDDNRDHKRT showed a protein stability index of 0.689 ± 0.017. With FFSFYPVYPLSA the protein stability index was 0.527 ± 0.021. FFSLISVFCPYP was tested, and the protein stability index was 0.533 ± 0.065. For FFWFFFLRFLFS, the protein stability index was 0.568 ± 0.031. Work on FGAGVWVGRVGG yielded a protein stability index of 0.649 ± 0.048. FGARKVELRWMV gave a protein stability index of 0.53 ± 0.0092. In the case of FGCLGVLGSGRC, the protein stability index is reported as 0.728 ± 0.037. FGGMSGVLFRMV gave a protein stability index of 0.663 ± 0.054. In the case of FGLSVSSMSWNL, the protein stability index is reported as 0.714 ± 0.0078. FGLVYCSGLTVS gave a protein stability index of 0.54 ± 0.0079. Work on FGSPVGSAGSCF yielded a protein stability index of 0.647 ± 0.095.
